In one test the target is T1, Murine Jag1-DSL-EGF1-4 (mouse, UniProt Q9QXX0 34-377).
T1 construct: also called murine Jagged1; mouse Jagged1
Put plainly: ELISA (screening, FIG. 8). In general terms: In an ELISA, binding on a coated surface is turned into a signal by an enzyme label.

Another test concerns the target T2, Human Jag1-DSL-EGF1-4 (human, UniProt P78504 34-377).
T2 construct: Secreted protein from BEVS cells; also called human Jagged1; hJag1; not shown: TEV protease cleavage site and 6-His tag at the C-terminus
Put plainly: SPR (BIAcore-3000), IgG captured, Jag DSL-EGF1-4 as analyte, 25 C. A general note: In SPR one partner is held on a chip, and binding of the other changes the refractive index at the surface.

In the next test the target is T3, Murine Jag2-DSL-EGF1-4 (mouse, UniProt Q9QYE5 27-388).
T3 construct: also called murine Jagged2; Mouse Jag2
T3 sequence: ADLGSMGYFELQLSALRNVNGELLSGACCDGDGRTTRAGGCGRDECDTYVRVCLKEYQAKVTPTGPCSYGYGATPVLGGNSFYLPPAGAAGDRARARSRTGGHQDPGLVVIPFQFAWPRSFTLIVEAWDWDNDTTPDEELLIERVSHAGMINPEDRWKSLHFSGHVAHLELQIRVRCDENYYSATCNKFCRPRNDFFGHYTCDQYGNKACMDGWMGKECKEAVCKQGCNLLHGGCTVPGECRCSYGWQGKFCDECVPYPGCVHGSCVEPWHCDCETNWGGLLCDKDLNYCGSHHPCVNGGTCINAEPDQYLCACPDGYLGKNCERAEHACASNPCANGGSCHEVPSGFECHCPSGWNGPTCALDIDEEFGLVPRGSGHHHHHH
Put plainly: SPR (BIAcore-3000), IgG captured, Jag DSL-EGF1-4 as analyte.

Another test addresses T4, Human Jag2-DSL-EGF1-4 (human, UniProt Q9Y219 24-388).
T4 construct: also called human Jagged2; hJag2
T4 sequence: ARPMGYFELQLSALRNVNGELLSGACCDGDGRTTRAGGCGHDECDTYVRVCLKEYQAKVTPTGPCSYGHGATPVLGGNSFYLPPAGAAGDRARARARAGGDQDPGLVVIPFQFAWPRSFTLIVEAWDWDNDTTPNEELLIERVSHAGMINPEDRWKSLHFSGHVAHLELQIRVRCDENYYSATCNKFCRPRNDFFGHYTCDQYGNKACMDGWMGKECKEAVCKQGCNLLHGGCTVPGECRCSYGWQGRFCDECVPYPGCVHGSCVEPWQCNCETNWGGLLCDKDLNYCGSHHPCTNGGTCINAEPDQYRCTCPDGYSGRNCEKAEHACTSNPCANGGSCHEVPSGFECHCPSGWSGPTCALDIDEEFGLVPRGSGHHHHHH
The experiment in a line: ELISA on human Jagged2 (Jag-2 bars), OD450 nm.

Usually Kd stands for the constant that tells how readily two partners part at equilibrium. A low value points to higher affinity. The koff is a measure of how fast the partners let go of each other. Higher therefore signals fast dissociation. Broadly, the kon is the second-order rate constant of association. Higher therefore signals fast association.

Protocol for Human Jag1-DSL-EGF1-4: (§1) Binding affinities of anti-Jagged1 phage antibodies were measured by Surface Plasmon Resonance (SRP) using a BIAcore™-3000 instrument. Anti-Jagged1/2 phage human IgGs were captured by mouse anti-human IgG coated on the CM5 sensor chip to achieve approximately 150 response units (RU). […] Association rates (kₒₙ) and dissociation rates (koff) were calculated using a simple one-to-one Langmuir binding model (BIAcore Evaluation Software version 3.2). The equilibrium dissociation constant (kd) was calculated as the ratio koff/kₒₙ.
Protocol for Murine Jag2-DSL-EGF1-4: as §1

B1: Antibody A (antibody, human IgG1, V domains shown)
VH: EVQLVESGGGLVQPGGSLRLSCAASGFTFSNYGIHWVRQAPGKGLEWVGWITPDGGYTDYADSVKGRFTISADTSKNTAYLQMNSLRAEDTAVYYCARAGSWFAYWGQGTLVTVSS
VL: DIQMTQSPSSLSASVGDRVTITCRASQDVSTAVAWYQQKPGKAPKLLIYSASFLYSGVPSRFSGSGSGTDFTLTISSLQPEDFATYYCQQSYTTPPTFGQGTKVEIK
notes: Only the variable domains are tied to the tested antibody; also called parent antibody A; anti-Jagged1 antibody A
Turning to B1, in the test with Murine Jag1-DSL-EGF1-4, the binding result is “binds”. For the same molecule, in the test with Human Jag1-DSL-EGF1-4, the affinity, expressed as Kd, was 94 nM; the koff turned out to be 0.0021 s⁻¹; the kon was found to be 23000 M⁻¹ s⁻¹. The binding result with Murine Jag2-DSL-EGF1-4 is listed as “no binding (tested: 0.5 µM)”. In the test with Human Jag2-DSL-EGF1-4, the binding result was “no binding”.

(Values after patent US20150252117A1 (Genentech, published 2015).)
